Measured values reported in US20200069778A1, “PLANT-EXPRESSED COCAINE HYDROLASE VARIANTS OF BUTYRYLCHOL[…] METHODS OF REDUCING COCAINE-PRIMED REINSTATEMENT” (priority 2018, published 2020).

Assay: Radiometric (−)-cocaine hydrolysis assay
Assay type: biochemical
Conditions: 25° C.

B1: WT pBChE (protein, UniProt P06276 29-602, looked up)
Cholinesterase: EDDIIIATKNGKVRGMNLTVFGGTVTAFLGIPYAQPPLGRLRFKKPQSLTKWSDIWNATKYANSCCQNIDQSFPGFHGSEMWNPNTDLSEDCLYLNVWIPAPKPKNATVLIWIYGGGFQTGTSSLHVYDGKFLARVERVIVVSMNYRVGALGFLALPGNPEAPGNMGLFDQQLALQWVQKNIAAFGGNPKSVTLFGESAGAASVSLHLLSPGSHSLFTRAILQSGSFNAPWAVTSLYEARNRTLNLAKLTGCSRENETEIIKCLRNKDPQEILLNEAFVVPYGTPLSVNFGPTVDGDFLTDMPDILLELGQFKKTQILVGVNKDEGTAFLVYGAPGFSKDNNSIITRKEFQEGLKIFFPGVSEFGKESILFHYTDWVDDQRPENYREALGDVVGDYNFICPALEFTKKFSEWGNNAFFYYFEHRSSKLPWPEWMGVMHGYEIEFVFGLPLERRDNYTKAEEILSRSIVKRWANFAKYGNPNETQNNSTSWPVFKSTEQKYLTLNTESTRIMTKLRAQQCRFWTSFFPKVLEMTGNIDEAEWEWKAGFHRWNNYMMDWKNQFNDYTSKKESCVGL
modifications: plant-expressed
With B1 the Km was 2.9 µM and the “kcat against (−)-cocaine” value was 0.0433 s⁻¹.
